One substance from article PMC3633458 can be followed below.

The target of assay [1] is Escherichia coli-expressed Plasmodium falciparum merozoite surface protein 3 (EcMSP3) (Plasmodium falciparum (FVO strain)). Nature of the assay: SEC-MALS.
For assay [2] the target is unchanged. Briefly: AUC.

Turning to “Escherichia coli-expressed Plasmodium falciparum merozoite surface protein 3 (EcMSP3) (domain or fragment)”, the stoichiometry N in assay [1] and in assay [2] was 2 each time.
